The term Kd denotes the concentration at which binding is half-saturated. A lower Kd goes with a tighter complex.

Among the data in patent US6685932 (EUROPAISCHES LABORATORIUM MOLEKULARBIOLOGIE, dated 2004) are binding result and Kd values, retold here.

Test [1] addresses T1, extracellular domain of the IL-4Rα (IL-4 binding protein) (UniProt P24394 26-232, limits assumed, biotinylated at Cys-206).
T1 construct: extracellular domain; Immobilised on the streptavidin-coated matrix of the biosensor through biotin at Cys-206; also called IL4BP; IL-4 specific receptor
T1 sequence (looked up): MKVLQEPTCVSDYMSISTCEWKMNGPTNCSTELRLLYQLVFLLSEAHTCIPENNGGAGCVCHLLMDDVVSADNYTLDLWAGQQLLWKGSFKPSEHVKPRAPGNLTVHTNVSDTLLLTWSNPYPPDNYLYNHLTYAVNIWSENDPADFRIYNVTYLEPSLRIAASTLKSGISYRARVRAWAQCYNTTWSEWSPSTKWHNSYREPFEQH
In words: biosensor (BIA2000), IL4BP immobilised on a streptavidin matrix, room temperature.

For test [2], the target named is T1, extracellular domain of the IL-4Rα …. In words: biosensor (BIA2000), IL4BP biotinylated at Cys-206 on a streptavidin matrix, 25 C.
For test [3] the target is unchanged. Described as above. The source holds these as a separate data set.

Like-named read-outs stand apart in the source and are kept apart here.

B1: Model 1 (peptide)
peptide: Ac-RMKQLEDKVEELLSKNYRLENRVARLEKLVG-NH2
modifications: also: designed to form non-covalent parallel coiled-coil dimer
notes: Synthetic peptide derived from the GCN4 leucine zipper, designed to form a non-covalent parallel coiled-coil dimer
As for B1, the binding result in test [1] is recorded as “no binding”.

B2: Model 2 (peptide)
peptide: Ac-RMKQLEDKVERLLSRNYRLENEVARLKKLVG-NH2
modifications: not fully specified
notes: as for B1
For the molecule B2, the Kd in test [2] and in test [3] was 4.08 mM in each case.
